# B1: GFFSFVHEAFQGAGDMWRAYTDMKEANWKNSDKYFHARGNYDAAQRGPGGVWAAEKISD GREAFQEFFGRGHEDTIADQEANRHGRSGKDPNYYRPPGLPDKY (protein, listed as Mus musculis)
# chain: GFFSFVHEAFQGAGDMWRAYTDMKEANWKNSDKYFHARGNYDAAQRGPGGVWAAEKISDGREAFQEFFGRGHEDTIADQEANRHGRSGKDPNYYRPPGLPDKY
# notes: full length murine serum amyloid A isoform 2.1 purified from acute phase plasma
# What was measured:
# [1] = tested on: [3H]-cholesterol-loaded J774 macrophages; assay: In vivo cholesterol efflux to plasma in mice injected with [3H]-cholesterol-loaded J774 macrophages; details: for [3H]-cholesterol efflux as plasma radioactivity (dpm) (FIG. 1): intravenous liposomes containing 0.5 μM peptide, 24 hours after macrophages
# Procedure: In these experiments, in vivo cholesterol export was determined in mice injected with J774 macrophages cholesterol-loaded with RBC membranes and [^3H]-cholesterol. Two hundred thousand macrophages in 100:1 PBS were injected into each mouse through the tail vein. At various time points thereafter, approximately 25:1 of blood were collected from the tail vein of each animal into heparinized capillary tubes. The tubes were then centrifuged for 5 minutes in an Adams Autocrit Centrifuge to separate red blood cells from plasma. Cholesterol efflux was determined by measuring the appearance of [^3H]-cholesterol in plasma by scintillation spectrometry. To study whether export of cholesterol from J774 cells to plasma was influenced by non-liposome formulated D-27mer peptide (SEQ ID NO:10), 24 hours after injection of cholesterol-loaded J774 macrophages into mice, the same animals received, by intravenous injection, 30 μg, 60 μg, 150 μg, 225 μg, 300 μg or 600 μg of D-27mer. All these amounts of D-peptides were dissolved in 100:l of phosphate buffered saline and injected through the tail vein of each animal.
# Additional in vivo studies have also been conducted wherein mice were first injected intravenously with [^3H]cholesterol-laden macrophages and then injected 24 hours later with liposomes containing 0.5 μM of synthetic peptides corresponding to amino acid residues 1-20, 21-50, 51-80 or 74-103 of murine SAA2.1. Results from this study are depicted in FIG. 1. At time points indicated in the graph of FIG. 1, approximately 25 μl of blood were collected from the tail vein of each animal. The blood samples were centrifuged to separate the red blood cells from the plasma and the [^3H]-cholesterol in plasma was determined by scintillation counting. Results are mean±SEM of four determinations.
# To determine cholesterol export in vivo, J774 macrophages were cholesterol-loaded with red blood cell membranes and [^3H]-cholesterol as described above. Cells were washed four times with PBS/BSA and then detached from the culture dishes. Five million cells in 200 μl DMEM were injected into control mice or inflamed mice through the tail vein. At various time points, approximately 25 μl of blood were collected from the tail vein of each animal into heparinized capillary tubes and then centrifuged for 5 minutes in an Adams Autocrit Centrifuge to separate red blood cells from plasma. Cholesterol efflux was determined by measuring the appearance of [^3H]-cholesterol in plasma by scintillation spectrometry.
# J774 cells cultured in 6-well plates were enriched with cholesterol by incubating with red blood cell (RBC) membrane fragments (175:g as cholesterol) that had been previously labeled with 0.5:Ci/ml [^3H]-cholesterol at 37° C. for 24 hours in 0.2% bovine serum albumin (BSA). After loading with the labelled RBC membrane for 6 hours, cells were then washed with phosphate-buffered saline/BSA (PBS/BSA) three times followed by an 18 hour equilibration period during which monolayers were exposed to DMEM/BSA. To determine cholesterol export in vivo, J774 macrophages were cholesterol-loaded with RBC membranes and [^3H]-cholesterol as described previously above. Cells were washed four times with PBS/BSA and then detached from the culture dishes. Two hundred thousand cells in 100:l PBS were injected into mice through the tail vein. At various time points thereafter, approximately 25:l of blood were collected from the tail vein of each animal into heparinized capillary tubes. These tubes were then centrifuged for 5 minutes in an Adams Autocrit Centrifuge to separate red blood cells from plasma. Cholesterol efflux was determined by measuring the appearance of [^3H]-cholesterol in plasma by scintillation spectrometry. […]
# [2] = target: T1, acyl CoA:cholesterol acyl transferase (Mus musculus, UniProt Q61263); assay: Incorporation of [14C]oleate into cholesteryl ester in cholesterol-laden macrophages (ACAT activity); format: cell-based, murine; details: for relative acyl CoA:cholesterol acyl transferase activity: liposomes containing 0.5 μM synthetic peptide, 6 hour incubation, cholesterol-laden murine cells
# T1 construct: host or cells: J774 mouse macrophages, cholesterol-loaded
# T1 sequence (Q61263 1-540): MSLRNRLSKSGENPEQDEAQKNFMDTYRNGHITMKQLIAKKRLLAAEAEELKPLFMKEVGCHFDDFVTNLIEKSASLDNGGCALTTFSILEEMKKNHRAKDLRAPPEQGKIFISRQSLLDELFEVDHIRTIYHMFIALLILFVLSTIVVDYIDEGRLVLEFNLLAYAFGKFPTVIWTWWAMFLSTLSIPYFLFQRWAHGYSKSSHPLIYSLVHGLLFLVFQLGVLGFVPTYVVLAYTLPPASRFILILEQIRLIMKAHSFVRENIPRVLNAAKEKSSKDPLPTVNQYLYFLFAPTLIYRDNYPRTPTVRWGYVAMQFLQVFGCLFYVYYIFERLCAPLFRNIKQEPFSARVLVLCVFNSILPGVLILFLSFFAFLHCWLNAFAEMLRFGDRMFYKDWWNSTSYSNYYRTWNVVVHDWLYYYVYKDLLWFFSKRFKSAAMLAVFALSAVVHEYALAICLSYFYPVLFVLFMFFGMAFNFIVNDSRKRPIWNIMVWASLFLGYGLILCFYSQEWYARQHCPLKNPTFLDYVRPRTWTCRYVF
molecule,measurement,setting,value
"DTIADQEANRHGRSGKDPNYYRPPGLPDKY [SEQ ID NO:4, synthetic peptide, residues 74-103 of murine SAA2.1]",[3H]-cholesterol efflux as plasma radioactivity (dpm) (FIG. 1),[1],dramatically increased
same,relative acyl CoA:cholesterol acyl transferase activity,[2],no significant effect
"GFFSFVHEAFQGAGDMWRAY [SEQ ID NO:1, synthetic peptide, residues 1-20 of murine SAA2.1]",[3H]-cholesterol efflux as plasma radioactivity (dpm) (FIG. 1),[1],dramatically increased
same,relative acyl CoA:cholesterol acyl transferase activity,[2],two-fold decrease
B1,cholesterol release from macrophages pretreated with protein liposomes and injected into un-inflamed mice,"[1]; cholesterol-loaded macrophages pretreated with liposomes, injected intravenously",recapitulated the major cholesterol releasing effect
same,radiolabeled cholesterol exported in the plasma (FIG. 15),"[1]; non-liposome formulated, in 100 μl PBS, intravenous, 15 μg/mouse peptide or 75 μg/mouse full length protein",exceeded the increase observed following administration of the D-27mer peptide
same,acyl CoA:cholesterol acyl transferase activity in intact cholesterol-laden macrophages,"[2]; lipoproteins or protein liposomes, tissue culture",marked reduction of acyl CoA:cholesterol acyl transferase activity
